# Results from the Immune Epitope Database (IEDB).
# Legend:
# [1] = target: HLA-A*02:02; experiment: IEDB peptide-MHC binding, purified MHC/competitive/radioactivity; ≥ and ≤ were set here for values at or beyond the usual limits of such assays
# [2] = target: HLA-A*02:06; experiment: as above
# [3] = target: HLA-A*02:01; experiment: as above
# [4] = target: HLA-A*02:03; experiment: as above
# [5] = target: HLA-A*68:02; experiment: IEDB peptide-MHC binding, cellular MHC/competitive/fluorescence; ≥ and ≤ were set here for values at or beyond the usual limits of such assays
# [6] = source organism: Vaccinia virus WR
# [7] = source organism: Hepacivirus hominis
# [8] = source organism: Mammarenavirus choriomeningitidis
Sequence,"IC50 [1, 6]","IC50 [2, 6]","IC50 [3, 6]","IC50 [4, 6]","IC50 [5, 6]",other results
AAVTLNRIKI,830 nM,1920 nM,2320 nM,3490 nM,5.98 µM,–
LLYFILFFV,–,–,–,–,–,"IC50 [1, 7]: 227 nM; IC50 [2, 7]: 504 nM; IC50 [3, 7]: 164 nM; IC50 [4, 7]: 323 nM; IC50 [5, 7]: 23 µM"
ILLSRCLWWT,–,–,–,–,–,"IC50 [1, 7]: 4740 nM; IC50 [2, 7]: 246 nM; IC50 [3, 7]: 293 nM; IC50 [4, 7]: 1100 nM; IC50 [5, 7]: ≥ 70 µM"
KLLSTSNVIT,2260 nM,1550 nM,1120 nM,3350 nM,≥ 70 µM,–
YLSDSDNIKI,16 nM,906 nM,53 nM,109 nM,7.78 µM,–
SIKMIYDLNA,852 nM,1030 nM,1780 nM,257 nM,5.81 µM,–
YIEDELRRAA,628 nM,204 nM,573 nM,166 nM,24.8 µM,–
GMSIVCIVA,190 nM,4510 nM,83 nM,656 nM,9.84 µM,–
FMLNVSYLC,–,–,–,–,–,"IC50 [1, 8]: 196 nM; IC50 [2, 8]: 932 nM; IC50 [3, 8]: 1050 nM; IC50 [4, 8]: 1260 nM; IC50 [5, 8]: 8.48 µM"
RLLDLSSWFT,–,–,–,–,–,"IC50 [1, 7]: 303 nM; IC50 [2, 7]: 82 nM; IC50 [3, 7]: 20 nM; IC50 [4, 7]: 316 nM; IC50 [5, 7]: 11.1 µM"
HLDGEVLSL,–,–,–,–,–,IC50 ([1]; source organism: SARS-CoV1): 66 nM; IC50 ([2]; source organism: SARS-CoV1): 160 nM; IC50 ([3]; source organism: SARS-CoV1): 67 nM; IC50 ([4]; source organism: SARS-CoV1): 131 nM; IC50 ([5]; source organism: SARS-CoV1): 13.6 µM
TLLLWISVKV,–,–,–,–,–,IC50 ([1]; source organism: SARS-CoV1): 549 nM; IC50 ([2]; source organism: SARS-CoV1): 875 nM; IC50 ([3]; source organism: SARS-CoV1): 253 nM; IC50 ([4]; source organism: SARS-CoV1): 1060 nM; IC50 ([5]; source organism: SARS-CoV1): 15.7 µM
VMHINSPFKV,60 nM,393 nM,13 nM,2.5 nM,6.27 µM,–
YLGHSAGFTA,16 nM,144 nM,21 nM,86 nM,8.21 µM,–
LLSVGVGIYL,–,–,–,–,–,"IC50 [1, 7]: 12 nM; IC50 [2, 7]: 575 nM; IC50 [3, 7]: 18 nM; IC50 [4, 7]: 568 nM; IC50 [5, 7]: 20.1 µM"
YLPEVISTIA,11 nM,18 nM,29 nM,0.96 nM,7.13 µM,–
ALLADKFPV,–,–,–,–,–,IC50 ([1]; source organism: SARS-CoV1): 29 nM; IC50 ([2]; source organism: SARS-CoV1): 23 nM; IC50 ([3]; source organism: SARS-CoV1): 1.7 nM; IC50 ([4]; source organism: SARS-CoV1): 604 nM; IC50 ([5]; source organism: SARS-CoV1): 12.9 µM
